{
  "source": "patent US20110311517A1",
  "about": "“Antibodies and methods for treating estrogen receptor-associated diseases” (SHENOGEN PHARMA GROUP, LTD., priority 2009, published 2011)",
  "molecules": {"B1": {"name": "ScFv7: fully human anti-ERα36 single chain antibody, SEQ ID NO: 15 (protein)", "scFv": "QSVLTQPPSVSAAPGQKVTISCSGSSSNIGNNYVSWYQQLPGTAPKLLIYDNNKRPSGIPDRFSGSKSGTSATLGITGLQTGDEADYYCGTWDSSLSAGVFGGGTKLTVLGSGGSTITSYNVYYTKLSSSGTEVQLVQSGGGLVQPGRSLRLSCAASGFTFDDYAMHWVRQAPGKGLEWVSGISWNSGSIGYADSVKGRFTISRDNAKNSLYLQMNSLRAEDTALYYCAKEGDSSGWSPDYWGQGTLVTVSSAS", "modifications": "scFv7"}},
  "key": {"[1]": {"assay": "Body weight and mortality of tumor-bearing nude mice during drug administration", "assay_type": "in vivo, BALB/c-nu nude mice", "settings": "mean ± SD", "text": "(§1) The tested animals were grouped into 7 groups with 7 nude mice in each group. The seven groups are the negative control group treated with human IgG antibody (purchased from Beijing Biosynthesis Biotechnology Co. Ltd.), the positive control group treated with herceptin (provided by Beijing Shenogen pharma group), the multi-clonal antibody test group treated with rabbit anti-ERα36 multi-clonal antibody (provided by Wang, Zhao-Yi group, Creighton University), and the monoclonal antibody test groups treated with human anti-ERα36 monoclonal ScFv1, ScFv3, ScFv4 and ScFv7 respectively.\n(§2) The test groups were administered with the same dose of rabbit anti-ERα36 multi-clonal antibody, human anti-ERα36 monoclonal ScFv1, ScFv3, ScFv4 and ScFv7 respectively (5 mg/kg, 100 μg/dose). The positive control group was administered with 5 mg/kg herceptin (100 μg/dose,), and the negative control group was administered with 5 mg/kg IgG antibody (100 μg/dose).\nHuman breast tumor BCAP-37 (estrogen receptor positive, provided by department of pharmacology, Institute of Materia Medica, Chinese Academy of Medical Sciences) was implanted subcutaneously into the armpit of the right forelimb of each tested nude mouse. Diethylstilbestrol was administered by gavage with the dose of 7 μg/day for 9 consecutive days after the implantation. On day 10, the mice were grouped into 7 groups and administered with the corresponding drug via intravenous injection, at a dosing interval of 3-4 days, for 6 consecutive doses. Every 3-4 days, the tumor-bearing mice were weighed and their tumor sizes were measured. Parameters were calculated using the following equations: […]"}, "[2]": {"test_system": "Human breast tumor BCAP-37", "assay": "Tumor growth inhibition in BCAP-37 tumor-bearing nude mice", "assay_type": "in vivo, BALB/c-nu nude mice", "text": "49 female BALB/c-nu nude mice (provided by department of laboratory animal science, Peking University Health Science Center) were used in the studies.\nas §1, §2\nHuman breast tumor BCAP-37 (estrogen receptor positive, provided by department of pharmacology, Institute of Materia Medica, Chinese Academy of Medical Sciences) was implanted subcutaneously into the armpit of the right forelimb of each tested nude mouse. Diethylstilbestrol was administered by gavage with the dose of 7 μg/day for 9 consecutive days after the implantation. On day 10, the mice were grouped into 7 groups and administered with the corresponding drug via intravenous injection, at a dosing interval of 3-4 days, for 6 consecutive doses. Every 3-4 days, the tumor-bearing mice were weighed and their tumor sizes were measured. Parameters were calculated using the following equations:\nVolume of Tumor in animals of each group (VT): Vt=½×a×b^2, (Equation 1),\nwherein a and b represent the length and width of the tumor, respectively;\nwherein V0 is the volume of tumor before drug administration at the time of grouping, Vt is the volume of tumor at each measurement; the calculation method of V0 is the same as that of Vt;\nwherein TRTV is the arithmetic mean of RTV of the test groups, and CRTV is the arithmetic mean of RTV of the negative control group.\nThe tumor bearing mice in each group were terminated after 21 days of observations and drug administrations. The tumors were then excised from the animals, photographed and weighed on 1/10000 analytical balance. The average tumor weights and tumor growth inhibition rates were calculated:\nAll experimental data were shown in mean±standard deviation. Groups were compared using statistical t test."}, "ERα36": {"target": "T1, ERα36 (Homo sapiens, UniProt P03372)", "T1 construct": "made in house; host or cells: chemical synthesis (no expression host)", "T1 sequence (P03372 284-310 isoform P03372-4 limits assumed)": "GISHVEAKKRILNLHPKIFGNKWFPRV", "assay": "ELISA of re-natured ScFv binding to ERα36", "method": "Streptavidin-coated 96-well plates were washed twice with PBS. Biotinylated ERα36 (final concentration of 20 μg/ml) was added into each testing well. The plates were incubated for 2 h at room temperature and washed three times with PBST. Re-natured ScFv samples (100 μl, S14A1r1, S24A2r2, S33A2r1, S41A3r3, S53A1r1, S66A1r1 and S72A2r1) were added into the testing wells respectively. Each ScFv was diluted five times in five gradients, and two parallel wells were loaded with each ScFv at each gradient. The plates were incubated at 37° C. for 1 h. The plates were washed three times with PBST, followed by addition of 100 μl anti-His-6 mouse monoclonal antibody (1:2000 dilution) per well and 1 h incubation at 37° C. The plates were washed three times with PBST, followed by addition of 100 μl goat anti-mouse-HRP (1:2500 dilution) per well and 1 h incubation at 37° C. The plates were washed six times with PBST, followed by addition of 100 μl OPD to develop under the protection from light. The reactions were terminated by adding 50 μl 2M H2SO4 to each well, and data were collected by microplate reader at 490 nm.\nOne positive control and three negative controls were performed in parallel. The positive control used rabbit anti-ER multi-clonal antibody serum in replacement of the ScFv re-natured sample and goat-anti-rabbit-HRP in replacement of goat-anti-mouse HRP."}, "implanted tumors": {"test_system": "implanted tumors", "assay": "Comparison of anti-tumor activity of ScFv-7 with tamoxifen on tumor-bearing nude mice", "assay_type": "in vivo, BALB/c-nu female nude mice", "settings": "after 18 days of drug administration", "method": "BALB/c-nu female nude mice were divided into 3 groups, with 7 mice in each group.\nHuman anti-ERα36 ScFv-7 was administered at the dose of 0.1 mg/20 g body weight/day. The positive control tamoxifen was administered at the dose of 0.33 mg/20 g body weight/day. The negative control group was administered with human IgG.\nThe tumor-bearing nude mice were weighed, and the volumes of the implanted tumors were measured every 3-4 days. The relative tumor volumes and tumor growth inhibition rates were calculated using Equation 2 and Equation 4 respectively. Animals received drug administration for 18 days and were terminated 24 h later. The tumors were excised from the animals and weighed. The average tumor weights and tumor growth inhibitions were calculated using Equation 4."}, "[3]": {"settings": "5 mg/kg i.v. every 3-4 days, 6 doses"}, "[4]": {"settings": "BCAP-37 nude mice, 5 mg/kg i.v. every 3-4 days, 6 doses, mean ± SD"}, "[5]": {"settings": "BCAP-37 nude mice, 5 mg/kg i.v. every 3-4 days, Vt relative to V0, mean ± SD"}, "[6]": {"settings": "ScFv concentration 200.00 μg/ml"}},
  "note": "Marks after values point to notes of the source that are not given here.",
  "data": [
    {"molecule": "B1", "values": [
      {"measurement": "Body weights of tumor-bearing nude mice, Day 4 after drug administration", "setting": "[1]; [3]", "result": "20.02 ± 0.51"},
      {"measurement": "Body weights of tumor-bearing nude mice, Day 7 after drug administration", "setting": "[1]; [3]", "result": "20.65 ± 0.24"},
      {"measurement": "Body weights of tumor-bearing nude mice, Day 11 after drug administration", "setting": "[1]; [3]", "result": "21.34 ± 0.51"},
      {"measurement": "Body weights of tumor-bearing nude mice, Day 14 after drug administration", "setting": "[1]; [3]", "result": "22.01 ± 0.52"},
      {"measurement": "Body weights of tumor-bearing nude mice, Day 18 after drug administration", "setting": "[1]; [3]", "result": "23.15 ± 0.58"},
      {"measurement": "Body weights of tumor-bearing nude mice, Day 21 after drug administration", "setting": "[1]; [3]", "result": "23.52 ± 0.47"},
      {"measurement": "body weight when grouped", "setting": "[1]; baseline at the time of grouping", "result": "19.67 ± 0.67"},
      {"measurement": "Body weights of tumor-bearing nude mice, Before drug administration", "setting": "[1]; baseline, 5 mg/kg i.v. every 3-4 days, 6 doses", "result": "19.67 ± 0.67"},
      {"measurement": "Tumor volumes, Day 4 after drug administration", "setting": "[2]; [4]", "result": "186.11 ± 71.13^a mm^3"},
      {"measurement": "Tumor volumes, Day 7 after drug administration", "setting": "[2]; [4]", "result": "308.85 ± 117.52^b mm^3"},
      {"measurement": "Tumor volumes, Day 11 after drug administration", "setting": "[2]; [4]", "result": "1521.45 ± 366.24^b mm^3"},
      {"measurement": "Tumor volumes, Day 14 after drug administration", "setting": "[2]; [4]", "result": "2136.49 ± 479.95^b mm^3"},
      {"measurement": "Tumor volumes, Day 18 after drug administration", "setting": "[2]; [4]", "result": "2944.61 ± 526.75^b mm^3"},
      {"measurement": "Tumor volumes, Day 21 after drug administration", "setting": "[2]; [4]", "result": "3358.43 ± 445.13^b mm^3"},
      {"measurement": "relative tumor volume (RTV), Day 4", "setting": "[2]; [5]", "result": "3.81 ± 1.54^b"},
      {"measurement": "relative tumor volume (RTV), Day 7", "setting": "[2]; [5]", "result": "6.45 ± 2.86^b"},
      {"measurement": "relative tumor volume (RTV), Day 11", "setting": "[2]; [5]", "result": "31.64 ± 10.24^b"},
      {"measurement": "relative tumor volume (RTV), Day 14", "setting": "[2]; [5]", "result": "44.48 ± 13.69^b"},
      {"measurement": "relative tumor volume (RTV), Day 18", "setting": "[2]; [5]", "result": "61.54 ± 18.25^b"},
      {"measurement": "relative tumor volume (RTV), Day 21", "setting": "[2]; [5]", "result": "70.27 ± 19.61^b"},
      {"measurement": "inhibition of tumor growth in tumor-bearing mice (in words)", "setting": "[2]; BCAP-37 nude mice, 5 mg/kg i.v., 6 doses", "result": "strongest inhibitory activities"},
      {"measurement": "Tumor volumes, Before drug administration", "setting": "[2]; baseline, BCAP-37 nude mice, 5 mg/kg i.v. every 3-4 days, 6 doses, mean ± SD", "result": "50.62 ± 13.32", "unit": "mm^3"},
      {"measurement": "tumor sizes at pathological examination (in words)", "setting": "[2]; excised tumors after 21 days", "result": "the smallest among the mono-clonal antibody groups"},
      {"measurement": "Tumor weight", "setting": "[2]; excised tumors after 21 days, BCAP-37 nude mice, 5 mg/kg i.v., 6 doses, mean ± SD", "result": "2.860 ± 0.696", "unit": "g"},
      {"measurement": "Tumor growth inhibition rate (%)", "setting": "[2]; from average tumor weights after 21 days vs negative control, 5 mg/kg i.v., 6 doses", "result": 57.97, "unit": "%"},
      {"measurement": "OD490 Well1", "setting": "ERα36; ScFv concentration 0.32 μg/ml", "result": 0.122},
      {"measurement": "OD490 Well2", "setting": "ERα36; ScFv concentration 0.32 μg/ml", "result": 0.111},
      {"measurement": "OD490 Well1", "setting": "ERα36; ScFv concentration 1.60 μg/ml", "result": 0.146},
      {"measurement": "OD490 Well2", "setting": "ERα36; ScFv concentration 1.60 μg/ml", "result": 0.155},
      {"measurement": "OD490 Well1", "setting": "ERα36; ScFv concentration 8.00 μg/ml", "result": 0.171},
      {"measurement": "OD490 Well2", "setting": "ERα36; ScFv concentration 8.00 μg/ml", "result": 0.155},
      {"measurement": "OD490 Well1", "setting": "ERα36; ScFv concentration 40.00 μg/ml", "result": 0.294},
      {"measurement": "OD490 Well2", "setting": "ERα36; ScFv concentration 40.00 μg/ml", "result": 0.311},
      {"measurement": "OD490 Well1", "setting": "ERα36; [6]", "result": 0.690},
      {"measurement": "OD490 Well2", "setting": "ERα36; [6]", "result": 0.740},
      {"measurement": "tumor sizes at pathological examination (in words)", "setting": "implanted tumors", "result": "significantly smaller than those of the negative group"},
      {"measurement": "tumor volume (VT), relative tumor volume (RVT) and relative tumor growth rate (T/C %) versus negative control group", "setting": "implanted tumors", "result": "significantly lower"},
      {"measurement": "tumor inhibition rates", "setting": "implanted tumors; ScFv-7 0.1 mg/20 g body weight/day, tamoxifen 0.33 mg/20 g body weight/day", "result": "around 60%"},
      {"measurement": "average tumor weights compared with negative group", "setting": "implanted tumors; p-values below 0.01", "result": "significant difference"}
    ]}
  ]
}
